Results on one molecule are retold here after patent publication US20170226213A1 (Daiichi Sankyo, published 2017).

The target in test [1] is T1, cynomolgus monkey FGFR4 on transfected Hek293 cells (cynomolgus monkey).
T1 construct: whole, on cells
As to the kind of experiment: flow cytometry titration on transfected Hek293 cells. As for the experimental part: Hek293 cells were obtained from CLS (Cell Lines Service, Eppelheim; Germany) and cultured in DMEM containing 10%FBS under standard conditions at 37° C. and 5% CO2. On Day 0, cells were seeded at 4×10⁵ cells/10 cm dish. After 24 h, cells were transfected with plasmids coding for FGFR4 from rat, mouse, human or cynomolgus monkey. Cells were allowed to express the proteins for 48 h and were then dissociated from the dish with 5 mM EDTA in PBS followed by incubation with indicated concentrations of anti-FGFR4 antibody U4-3 or GT-13. Binding was determined using a Phycoerythrin-conjugated anti-human IgG antibody (Jackson Immuno Research Europe). Data was acquired with a BD Accuri C6 flow cytometer (BD Biosciences.) and analyzed using the AccuriC6 software. Antibody titrations experiment (starting concentration 10 μg/ml; 1:3 dilution) allowed calculation of the dissociation constants for the antibodies (see table below).

Test [2] concerns the target T2, FGFR4 construct with Ig-like domain 1 (amino acids 22-180) on Hek293 cells (UniProt P22455 22-180).
T2 construct: range 22-180; Expressed on transfected Hek293 cells
As to the kind of experiment: flow cytometry on Hek293 cells transfected with the FGFR4 (D1) construct, PE-conjugated anti-human IgG. As to the method: Hek293 cells were obtained from CLS and cultured in DMEM containing 10% FBS under standard conditions at 37° C. and 5% CO2. On Day 0, cells were seeded and after 24 h cells were transfected with plasmids coding for FGFR4 containing the indicated domain. Cells were allowed to express the proteins for 48 h and were then dissociated from the dish with 5 mM EDTA in PBS followed by incubation with indicated anti-FGFR4 antibody. Binding was determined using a Phycoerythrin-conjugated anti-human IgG antibody (Jackson Immuno Research Europe). Data was acquired with a BD Accuri C6 flow cytometer (BD Biosciences) and analyzed using the AccuriC6 software.
A general note: A flow cytometer gives signals particle by particle.

T2 sequence (P22455 22-180 limits assumed): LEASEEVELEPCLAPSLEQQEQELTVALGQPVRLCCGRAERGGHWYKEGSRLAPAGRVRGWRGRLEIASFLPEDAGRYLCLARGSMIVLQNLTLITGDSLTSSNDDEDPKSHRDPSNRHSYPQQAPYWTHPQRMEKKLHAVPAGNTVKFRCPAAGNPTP

B1: human anti-FGFR4 antibody U4-3 (antibody, V domains shown)
VH: EVQLLESGGGLVQPGGSLRLSCAASGFTFSDYYMSWIRQAPGKGLEWVSTISGSGGSTYYADSVKGRFTISRDNSKNTLYLQMNSLRAEDTAVYYCARLTAYGHVDSWGQGTLVTVSS
VL: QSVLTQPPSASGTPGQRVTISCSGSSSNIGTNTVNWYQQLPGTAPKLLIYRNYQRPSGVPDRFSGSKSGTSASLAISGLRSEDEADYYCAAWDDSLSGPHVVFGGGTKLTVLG
For B1, in test [1], binding was characterised by a dissociation constant (Kd) of 0.32 nM. Also, the binding result in test [2] was “no binding”.

In general, Kd refers to the free concentration of one partner at which half of the binding sites on the other are occupied at equilibrium, for simple one-to-one binding.
